From patent US20210403579A1 (DELINIA, published 2021)
Numbering of substitutions follows the chain as printed. Values belong to the binder of their own block, whether it stands above or below them.

Columns and labels:
Human ST2 = target: T1, Human ST2 (human, UniProt Q01638 19-328, limits assumed); test: SPR (Carterra), antibody immobilized, ST2 analyte
T1 construct: also called human ST2 protein; Interleukin 1 receptor-like 1
T1 sequence (looked up): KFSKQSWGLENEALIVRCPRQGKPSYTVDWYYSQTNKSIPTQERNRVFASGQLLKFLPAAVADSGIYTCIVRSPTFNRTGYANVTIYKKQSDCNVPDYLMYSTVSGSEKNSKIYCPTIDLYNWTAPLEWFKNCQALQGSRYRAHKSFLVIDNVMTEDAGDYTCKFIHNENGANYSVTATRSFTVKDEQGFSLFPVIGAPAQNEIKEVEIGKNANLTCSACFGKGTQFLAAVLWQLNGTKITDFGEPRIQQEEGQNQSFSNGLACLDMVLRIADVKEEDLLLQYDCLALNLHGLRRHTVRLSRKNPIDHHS
Procedure: (§1) Binding of the reformatted human ST2 antibodies to the human and mouse ST2 proteins was evaluated by surface plasmon resonance (SPR), using a high throughput antibody screening and characterization platform from Carterra (Salt Lake City, Utah).

Mouse ST2 = target: T2, Mouse ST2 (mouse, UniProt P14719 27-332, limits assumed); test: SPR (Carterra), antibody immobilized, ST2 analyte, 1:1
T2 construct: also called mouse ST2 protein
T2 sequence (looked up): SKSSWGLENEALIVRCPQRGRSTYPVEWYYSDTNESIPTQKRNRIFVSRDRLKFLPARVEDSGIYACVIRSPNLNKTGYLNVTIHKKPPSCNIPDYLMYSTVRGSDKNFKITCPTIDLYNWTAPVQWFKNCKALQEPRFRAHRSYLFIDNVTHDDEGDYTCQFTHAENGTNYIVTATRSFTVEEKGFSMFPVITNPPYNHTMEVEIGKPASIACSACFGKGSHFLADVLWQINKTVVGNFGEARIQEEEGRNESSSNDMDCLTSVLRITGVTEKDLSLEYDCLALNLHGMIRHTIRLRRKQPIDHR
Procedure: as §1

Kd (Human ST2): 95 nM
koff (Human ST2): 0.025 s⁻¹
kon (Human ST2): 270000 M⁻¹ s⁻¹
B1: Human ST2 IgG1 Antibody 98 (antibody, V domains shown)
VH: EVQLLESGGGLVKPGGSLRLSCAASGFTFSSYWMSWVRQAPGKGLEWVSAISGTAINTYYADSVKGRFTISRDDSKNTLYLQMNSLKTEDTAVYYCARVRRDSSGGGAFDIWGQGTMVTVSS
VL: DIQMTQSPSSLSASVGDRVTITCRASQGISNNLNWYQQKPGKAPKLLIYAASSLQTGVPSRFSGSGSGTDFTLTISSLQPEDFATYYCQQSYSTPPTFGQGTKVEIKR
notes: IgG1; also called ST2 Antibody 98

Kd (Human ST2): 342 nM
koff (Human ST2): 0.074 s⁻¹
kon (Human ST2): 220000 M⁻¹ s⁻¹
B3: Human ST2 IgG1 Antibody 100 (antibody, V domains shown)
VH: EVQLLESGGGLVQPGGSLRLSCAASGFTFSNYAMAWVRQAPGKGLEWVSWISGSGSYIYYADSVKGRFTISRDNSKNTLYLQMNSLRAEDTAVYYCARRGSSWSNFDYWGQGTLVTVSS
VL: B1 VL with G28T, N31T, N32Y, A50D, S53N, Q55E, P96I
notes: IgG1; also called ST2 Antibody 100

Kd (Mouse ST2): 999 nM
koff (Mouse ST2): 0.11 s⁻¹
kon (Mouse ST2): 110000 M⁻¹ s⁻¹
B5: Human ST2 IgG1 Antibody 44 (antibody, V domains shown)
VH: B1 VH
VL: B1 VL
notes: IgG1, kappa; also called ST2 Antibody 44

Kd (Human ST2): 446 nM
koff (Human ST2): 0.0086 s⁻¹
kon (Human ST2): 19000 M⁻¹ s⁻¹
B8: Human ST2 IgG1 Antibody 95 (antibody, V domains shown)
VH: QVQLVQSGAEVKKPGSSVKVSCKASGYTFTSYGISWVRQAPGQGLEWMGGIIPIFGTANYAQKFQGRVTITADESTSTAYMELSSLRSEDTAVYYCARVMARRDGYNFKGGWYFDLWGRGTLVTVSS
VL: DIVMTQSPLSLPVTPGEPASISCRSSQSLLHSNGYNYLDWYLQKPGQSPQLLIYAASSLQSGVPDRFSGSGSGTDFTLKISRVEAEDVGVYYCMQALETPPTFGQGTKLEIKR
notes: IgG1; also called ST2 Antibody 95

Kd (Human ST2): 337 nM
koff (Human ST2): 0.097 s⁻¹
kon (Human ST2): 290000 M⁻¹ s⁻¹
B9: Human ST2 IgG1 Antibody 96 (antibody, V domains shown)
VH: QVQLVQSGAEVKKPGSSVKVSCKASGFSFSTYGVAWVRQAPGQGLEWMGGFVPIIGSANYAQKFQGRVTITADESTSTAYMELSSLRSEDTAVYYCARDYGGNLDYWGQGTLVTVSS
VL: B8 VL with A96G, L97A, E98H, T99W, L109V
notes: IgG1; also called ST2 Antibody 96

Kd (Mouse ST2): 3400 nM
koff (Mouse ST2): 0.14 s⁻¹
kon (Mouse ST2): 42000 M⁻¹ s⁻¹
B11: Human ST2 IgG1 Antibody 39 (antibody, V domains shown)
VH: QVQLVQSGAEVKKPGSSVKVSCKASGYTFTSYYMQWVRQAPGQGLEWMGGIIPIFGTANYAQKFQGRVTITADESTSTAYMELSSLRSEDTAVYYCARARFGAVDYWGQGTLVTVSS
VL: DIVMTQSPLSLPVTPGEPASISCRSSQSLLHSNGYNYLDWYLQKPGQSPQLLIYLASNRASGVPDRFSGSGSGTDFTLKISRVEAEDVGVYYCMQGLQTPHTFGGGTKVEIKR
notes: IgG1, kappa; also called ST2 Antibody 39

Kd (Mouse ST2): 529 nM
koff (Mouse ST2): 0.09 s⁻¹
kon (Mouse ST2): 170000 M⁻¹ s⁻¹
B12: Human ST2 IgG1 Antibody 38 (antibody, V domains shown)
VH: QVQLVQSGAEVKKPGSSVKVSCKASGGTFSSYAISWVRQAPGQGLEWMGTIIPMFGIADYAQKFQGRVTITADESTSTAYMELSSLRSEDTAVYYCARSSRSSSWYNWYFDLWGRGTLVTVSS
VL: EIVMTQSPATLSVSPGERATLSCRASQSISSSYLAWYQQKPGQAPRLLIYGASTRATGIPARFSGSGSGTEFTLTISSLQSEDFAVYYCQQYYTTPWTFGQGTKVEIKR
notes: IgG1, kappa; also called ST2 Antibody 38

Kd (Human ST2): 192 nM
koff (Human ST2): 0.089 s⁻¹
kon (Human ST2): 460000 M⁻¹ s⁻¹
B16: Human ST2 IgG1 Antibody 99 (antibody, V domains shown)
VH: EVQLLESGGGLVQPGGSLRLSCAASGFTFSDYYMNWVRQAPGKGLEWVSTISGFGESTFYADSVKGRFTISRDNSKNTLYLQMNSLRAEDTAVYYCARLGAARAFDIWGQGTTVTVSS
VL: DIQMTQSPSSLSASVGDRVTITCRASQSIGSWMAWYQQKPGKAPKLLIYAASTLQSGVPSRFSGSGSGTDFTLTISSLQPEDFATYYCQQSYTTPITFGPGTKVDIKR
notes: IgG1; also called ST2 Antibody 99

Kd (Mouse ST2): 845 nM
koff (Mouse ST2): 0.11 s⁻¹
kon (Mouse ST2): 140000 M⁻¹ s⁻¹
B17: Human ST2 IgG1 Antibody 41 (antibody, V domains shown)
VH: QVQLVQSGAEVKKPGSSVKVSCKASGYTFTDYQMHWVRQAPGQGLEWVGVINPGGGSTTYAQTFQGRVTITADESTSTAYMELSSLRSEDTAVYYCARGGVEYSSSWDYYYYYGMDVWGQGTTVTVSS
VL: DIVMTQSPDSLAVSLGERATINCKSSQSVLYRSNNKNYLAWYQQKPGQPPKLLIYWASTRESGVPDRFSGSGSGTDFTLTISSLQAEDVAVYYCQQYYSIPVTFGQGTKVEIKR
notes: IgG1, kappa; also called ST2 Antibody 41

More lines, now with the values behind:

B2: Human ST2 IgG1 Antibody 19 (antibody, V domains shown)
VH: EVQLLESGGGLVQPGGSLRLSCAASGFSFSHAWMSWVRQAPGKGLEWVSVIHSGGSTFYADSVKGRFTISRDNSKNTLYLQMNSLRAEDTAVYYCARIGKGGGFDYWGQGTLVTVSS
VL: B1 VL with G28D, S30G, N31S, N32W, N34A, T56S
notes: IgG1, kappa; also called ST2 Antibody 19
Kd (Mouse ST2): 311 nM
koff (Mouse ST2): 0.11 s⁻¹
kon (Mouse ST2): 370000 M⁻¹ s⁻¹

B4: Human ST2 IgG1 Antibody 9 (antibody, V domains shown)
VH: EVQLLESGGGLVQPGGSLRLSCAASGFAFSSHWMHWVRQAPGKGLEWVATISSGSHSIHYADSVKGRFTISRDNSKNTLYLQMNSLRAEDTAVYYCAREAGTSYYYYGMDVWGKGTTVTVSS
VL: B1 VL with R24Q, G28D, S30R, N32Y, A50K, Q55E, T56S, Q100G
notes: IgG1, kappa; also called ST2 Antibody 9
Kd (Mouse ST2): 351 nM
koff (Mouse ST2): 0.032 s⁻¹
kon (Mouse ST2): 91000 M⁻¹ s⁻¹

B6: Human ST2 IgG1 Antibody 34 (antibody, V domains shown)
VH: QVQLVQSGAEVKKPGASVKVSCKASGQTFTDYAINWVRQAPGQGLEWMGWMNPNSGNTGYAQKFQGRVTMTRDTSTSTVYMELSSLRSEDTAVYYCARETLEQQLPFDYWGQGTLVTVSS
VL: B16 VL with G30S, M33L, S91Y, T93S, P95L, I96Y, P100Q, D105E
notes: IgG1, kappa; also called ST2 Antibody 34
Kd (Mouse ST2): 126 nM
koff (Mouse ST2): 0.0019 s⁻¹
kon (Mouse ST2): 15000 M⁻¹ s⁻¹

B7: Human ST2 IgG1 Antibody 16 (antibody, V domains shown)
VH: QVQLVQSGAEVKKPGASVKVSCKASGYTFTSHYMHWVRQAPGQGLEWMGIINPSGGSTSYAQKFQGRVTMTRDTSTSTVYMELSSLRSEDTAVYYCARAGIGYLAAHDLYYYYGMDVWGRGTLVTVSS
VL: EIVMTQSPATLSVSPGERATLSCRASQSVSSNFAWYQQKPGQAPRLLIYGASTRATGIPARFSGSGSGTEFTLTISSLQSEDFAVYYCQQYYSTPYTFGQGTKVEIKR
notes: IgG1, kappa; also called ST2 Antibody 16
Kd (Mouse ST2): 315 nM
koff (Mouse ST2): 0.1 s⁻¹
kon (Mouse ST2): 320000 M⁻¹ s⁻¹

B10: Human ST2 IgG1 Antibody 30 (antibody, V domains shown)
VH: QVQLVQSGAEVKKPGSSVKVSCKASGYTFTTYGITWVRQAPGQGLEWMGGIIPIFGTANYAQKFQGRVTITADESTSTAYMELSSLRSEDTAVYYCAKLSGSSGSWDYYYYYGMDVWGQGTLVTVSS
VL: B8 VL with S58N, E98Q, P101I, G106S, K108R
notes: IgG1, kappa; also called ST2 Antibody 30
Kd (Mouse ST2): 2700 nM
koff (Mouse ST2): 0.13 s⁻¹
kon (Mouse ST2): 48000 M⁻¹ s⁻¹

B13: Human ST2 IgG1 Antibody 20 (antibody, V domains shown)
VH: EVQLLESGAEVKKPGSSVKVSCKASGGTFSSYAISWVRQAPGQGLEWMGGIIPIFGTANYAQKFQGRVTITADESTSTAYMELSSLRSEDTAVYYCASGFYSNDLYYYYYMDVWGKGTTVTVSS
VL: DIQMTQSPSSLSASVGDRVTITCRASQSISSWLAWYQQKPGKAPKLLIYDASNLKTGVPSRFSGSGSGTDFTLTISSLQPEDFATYYCQQTYAIPLTFGGGTKVEIKR
notes: IgG1, kappa; also called ST2 Antibody 20
Kd (Mouse ST2): 2200 nM
koff (Mouse ST2): 0.17 s⁻¹
kon (Mouse ST2): 77000 M⁻¹ s⁻¹

B14: Human ST2 IgG1 Antibody 29 (antibody, V domains shown)
VH: QVQLVQSGAEVKKPGASVKVSCKASGGTFTGYFIHWVRQAPGQGLEWMGWMNPNSGNTGYAQKFQGRVTMTRDTSTSTVYMELSSLRSEDTAMYYCAREGQGVVPVDYWGQGTLVTVSS
VL: B13 VL with S52T, K55E, Q89L, T91D, A93N, I94Y, G100Q, G101S
notes: IgG1, kappa; also called ST2 Antibody 29
Kd (Mouse ST2): 751 nM
koff (Mouse ST2): 0.0045 s⁻¹
kon (Mouse ST2): 5900 M⁻¹ s⁻¹

B15: Human ST2 IgG1 Antibody 21 (antibody, V domains shown)
VH: QVQLVQSGAEVKKPGASVKVSCKASGYTFSNHYMHWVRQAPGQGLEWMGWVNPTSGNTGYAQKFQGRVTMTRDTSTSTVYMELSSLRSEDTAVYYCARDLGVTYFDLWGRGTLVTVSS
VL: B13 VL with S28G, D50E, N53H, K55E, Q89L, T91D, A93N, I94Y
notes: IgG1, kappa; also called ST2 Antibody 21
Kd (Mouse ST2): 999 nM
koff (Mouse ST2): 0.0085 s⁻¹
kon (Mouse ST2): 8500 M⁻¹ s⁻¹

B18: Human ST2 IgG1 Antibody 25 (antibody, V domains shown)
VH: QVQLVQSGAEVKKPGSSVKVSCKASGGTFSNYAISWVRQAPGQGLEWMGWISAYNGNTNYAQKFQGRVTMTRDTSTSTVYMELSSLRSEDTAVYYCARSTNALDYWGQGTLVTVSS
VL: DIQMTQSPSSLSASVGDRVTITCRASQGIRSNLDWYQQKPGKAPKLLISIVSNLGSGVPSRFSGSGSGTDFTLTISSLQPEDFATYYCLQHNSNPPTFGGGTKVEIKR
notes: IgG1, kappa; also called ST2 Antibody 25
Kd (Mouse ST2): 322 nM
koff (Mouse ST2): 0.064 s⁻¹
kon (Mouse ST2): 200000 M⁻¹ s⁻¹

B19: Human ST2 IgG1 Antibody 35 (antibody, V domains shown)
VH: QVQLVQSGAEVKKPGASVKVSCKASAYTFTSYGISWLRQAPGQGLEWMGWINPNSGNTGYAHKFQGRVTMTRDTSTSTVYMELSSLRSEDTAVYYCARGGSGWPTWGQGTLVTVSS
VL: DIQMTQSPSSLSASVGDRVTITCQASQDISNYLNWYQQKPGKAPKLLIYGASSLQSGVPSRFSGSGSGTDFTLTISSLQPEDFATYYCQQANTFPFTFGPGTKVDIKR
notes: IgG1, kappa; also called ST2 Antibody 35
Kd (Mouse ST2): 107 nM
koff (Mouse ST2): 0.018 s⁻¹
kon (Mouse ST2): 170000 M⁻¹ s⁻¹
